The source of these data is publication PMC4995489, “Staphylokinase has distinct modes of interaction with antimicrobial peptides, modulating its plasminogen-activation properties” (Scientific Reports, 2016).

The target in experiment [1] is T1, SakΔN10 (staphylokinase with its first ten residues deleted, C-terminal His6-tag) (Staphylococcus aureus, UniProt Q99SU7).
T1 construct: Staphylokinase contains 136 amino acids and has a molecular weight of 15.5 kDa; made in house; host or cells: E. coli BL21 (DE3), pET29b
T1 sequence (Q99SU7 38-163): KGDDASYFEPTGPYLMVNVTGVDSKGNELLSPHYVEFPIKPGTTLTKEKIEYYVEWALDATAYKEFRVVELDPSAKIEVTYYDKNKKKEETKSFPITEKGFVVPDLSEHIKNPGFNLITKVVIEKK
Put plainly: ITC of antimicrobial peptide binding to SakΔN10. To be noted: 25 °C; for Kd / KD: 200–400 μM peptide titrated into 8 μM SakΔN10, 20 mM HEPES pH 7.4, One Set of Sites model, at least two experiments. On the procedure:
(§1) Most peptides were purchased from Genscript (Piscataway, NJ) as custom-synthesized peptides synthesized using standard 9-fluorenylmethyoxycarbonyl (Fmoc) chemistry and they were purified by HPLC to >95% purity. […] The concentrations for most of the peptides were determined by UV absorption at 280 nm using molar extinction coefficients determined by ProtParam[54].
(§2) A synthetic gene for staphylokinase with optimized codons for expression in Escherichia coli was purchased from GeneArt (Life Technologies). Staphylokinase genes have been cloned and sequenced from different origins: the bacteriophages sakφC and sak42D, and the genomic DNA of a lysogenic S. aureus strain (sakSTAR)[56]. These indicate amino acid sequence differences at three positions in the coding sequences. In this study, we have worked with the sakSTAR protein sequence as it is the most commonly used variant. The gene was subcloned into a pET29b (Novagen), giving the expressed protein a C-terminal His6-tag when expressed in E. coli BL21 (DE3) cells.
(§3) All ITC runs were performed at 25 °C on a MicroCal VP-ITC microcalorimeter (Malvern, Westborough, MA). 200–400 μM peptide was titrated into 8 μM SakΔN10 or Sak in 20 mM HEPES, pH 7.4. […] Data analysis was performed using the MicroCal Origin software using the “One Set of Sites” binding model. At least two experiments were performed for each titration. Statistical analysis was performed to confirm the statistical validity of the differences in the KD values determined for LfcinB and Tritrp binding to SakΔN10 or Sak. p-values were calculated from Student’s t-tests at the 95% confidence level with a one-tailed hypothesis.

In experiment [2] the target is T2, staphylokinase (Sak, full-length, sakSTAR sequence, C-terminal His6-tag) (Staphylococcus aureus, UniProt Q99SU7).
T2 construct: Staphylokinase contains 136 amino acids and has a molecular weight of 15.5 kDa; made in house; host or cells: E. coli BL21 (DE3), pET29b, synthetic gene from GeneArt
T2 sequence (Q99SU7 28-163): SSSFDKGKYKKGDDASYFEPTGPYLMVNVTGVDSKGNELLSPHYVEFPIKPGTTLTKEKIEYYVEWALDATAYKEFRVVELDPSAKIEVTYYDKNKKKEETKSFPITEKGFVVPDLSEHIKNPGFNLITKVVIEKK
Put plainly: ITC of antimicrobial peptide binding to full-length staphylokinase. The settings on record: 25 °C, 200–400 μM peptide titrated into 8 μM Sak, 20 mM HEPES pH 7.4, One Set of Sites model, at least two experiments. On the procedure:
as §1, §2, §3

In experiment [3] the test system is Sak-dependent plasminogen activation. To be noted: mCRAMP expression upregulated during staphylococcal pneumonia, intranasal infection mouse model; cited from earlier work. From the text:
In the present study, our aim was to evaluate staphylokinase as a more general interacting partner for antimicrobial peptides of different structures and origin. […] It is possible that additional factors may be involved in promoting its binding in vivo.

For experiment [4], the target named is T3, SakΔN10 (staphylokinase with its first ten residues deleted) (Staphylococcus aureus, UniProt P68802 38-163).
T3 construct: not shown: His6, C-terminal, kept
T3 sequence: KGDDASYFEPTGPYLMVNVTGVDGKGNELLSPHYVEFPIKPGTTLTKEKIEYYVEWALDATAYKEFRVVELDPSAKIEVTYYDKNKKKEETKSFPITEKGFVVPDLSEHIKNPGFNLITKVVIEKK
Put plainly: ITC; 200-400 μM peptide titrated into 8 μM Sak or SakΔN10 in the cell; 25 °C; 20 mM HEPES, pH 7.4, no salt; One Set of Sites model; at least two experiments each. The settings on record: both partners purified.

The target of experiment [5] is T4, Staphylokinase (full-length Sak, sakSTAR sequence) (Staphylococcus aureus, UniProt P68802 28-163).
T4 construct: also called wtSak; full Sak; not shown: His6, C-terminal, kept
T4 sequence: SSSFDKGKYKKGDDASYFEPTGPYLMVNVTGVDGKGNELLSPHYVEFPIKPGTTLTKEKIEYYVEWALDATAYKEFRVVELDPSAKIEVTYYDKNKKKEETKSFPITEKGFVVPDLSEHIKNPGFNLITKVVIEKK
The experiment is described as above. The settings on record: both partners purified.

The target of experiment [6] is T4, Staphylokinase (full-length Sak, …). Put plainly: ITC + NMR titration; ITC of mCRAMP into full-length Sak repeated at 37 °C, together with the NMR titration data; not shown. To be noted: both partners purified.
Experiment [7] deals with T3, SakΔN10 (staphylokinase with its first …). Put plainly: ITC; 200-400 μM peptide titrated into 8 μM Sak or SakΔN10 in the cell; 25 °C; 20 mM HEPES, pH 7.4, no salt; One Set of Sites model; at least two experiments each. The settings on record: both partners purified. This is another data set of the same source.
Experiment [8] has as its target T4, Staphylokinase (full-length Sak, …). The description is as above. The settings on record: both partners purified. The source holds these as a separate data set.

Entries after “also recorded” stand apart in the source; their conditions may differ. Bridges are numbered along the chain shown (N, C = ends). Where no end group is shown, it is not given here.

In the case of `CC[C@H](C)[C@@H]1NC(=O)[C@H](CO)NC(=O)[C@@H]2CCCN2C(=O)[C@H](C)NC(=O)CNC(=O)[C@H](CC(C)C)NC(=O)[C@H](CCCCN)NC(=O)[C@H](CCCCN)NC(=O)[C@H](CCSC)NC(=O)[C@H](CCCNC(=N)N)NC(=O)[C@H](Cc2c[nH]c3ccccc23)NC(=O)[C@H](CCC(N)=O)NC(=O)[C@H](Cc2c[nH]c3ccccc23)NC(=O)[C@H](CCCNC(=N)N)NC(=O)[C@H](CCCNC(=N)N)NC(=O)[C@@H](NC(=O)[C@H](CCCCN)NC(=O)[C@@H](N)Cc2ccccc2)CSSC[C@@H](C(=O)N[C@H](C(=O)N[C@@H](CCCNC(=N)N)C(=O)N[C@@H](CCCNC(=N)N)C(=O)N[C@@H](C)C(=O)N[C@@H](Cc2ccccc2)C(=O)O)C(C)C)NC(=O)[C@H]([C@@H](C)O)NC1=O` [LfcinB], the values for the Kd in experiment [1] and in experiment [2] were 0.37 µM and 27.3 µM, respectively.

Consider `CC(C)C[C@H](NC(=O)[C@H](Cc1ccccc1)NC(=O)[C@@H]1CCCN1C(=O)[C@H](Cc1c[nH]c2ccccc12)NC(=O)[C@H](Cc1c[nH]c2ccccc12)NC(=O)[C@H](Cc1c[nH]c2ccccc12)NC(=O)[C@@H]1CCCN1C(=O)[C@H](Cc1ccccc1)NC(=O)[C@H](CCCNC(=N)N)NC(=O)[C@H](CCCNC(=N)N)NC(=O)[C@@H](N)C(C)C)C(=O)N[C@@H](CCCNC(=N)N)C(=O)N[C@@H](CCCNC(=N)N)C(N)=O` [Tritrp], for which the Kd in experiment [1] was found to be 2.42 µM; in experiment [2], 11.2 µM.

In the case of melittin, the “N (stoichiometry)” value in experiment [1] (200–400 μM peptide into 8 μM SakΔN10, 20 mM HEPES pH 7.4, One Set of Sites model) is on record as approximately 1. Moreover, the KD entry in experiment [1] and in experiment [2] was “weak interaction” throughout.

For “GLLRKGGEKIGEKLKKIGQKIKNFFQKLVPQPEQ [mCRAMP, mouse cathelicidin-related antimicrobial peptide, α-helical]”, the “augmentation of Sak-dependent plasminogen activation” value in experiment [3] is on record as “two-fold”. The figures for the KD entry in experiment [1] and in experiment [2] were “weak interaction” and “no binding; also recorded: no interaction”, respectively.

B1: Tritrp (C-terminally amidated tritrpticin) (peptide)
peptide: VRRFPWWWPFLRR-NH2
notes: Tritrpticin, a cathelicidin derived from porcine neutrophils; the amidated version was used
With B1, in experiment [4], the Kd came out at 2.42 µM, the dH is -7.01 kcal/mol and the “stoichiometry N” value was 1.14. Also, in experiment [5], the Kd turned out to be 11.2 µM, the dH was -3.02 kcal/mol and the “stoichiometry N” value came to 1.16.

B2: Mouse cathelicidin-related antimicrobial peptide (peptide)
peptide: GLLRKGGEKIGEKLKKIGQKIKNFFQKLVPQPEQ
notes: Cathelicidin-related antimicrobial peptide (CRAMP), the C-terminal peptide of the mouse cathelicidin precursor; also called mCRAMP
In the case of B2, the Kd in experiment [6] is not below 100 µM. The “stoichiometry N” value in experiment [7] was approximately 1.

B3: Bovine lactoferricin (peptide)
peptide: FKCRRWQWRMKKLGAPSITCVRRAF
modifications: disulfide 3-20
notes: Lactoferricin B, the peptide derived by intestinal proteolysis of bovine lactoferrin; also called LfcinB
On to B3, for which, in experiment [4], the Kd came to 0.37 µM, the dH is -30.1 kcal/mol and the “stoichiometry N” value was 0.99. Also, in experiment [5], the dissociation constant (Kd) stood at 27.3 µM, the dH is -4.68 kcal/mol and the “stoichiometry N” value was found to be 0.98. The equilibrium dissociation constant (Kd) in experiment [8] is 27.2 µM.
